In article PMC4994030 (Scientific Reports, 2016):
Changes are numbered by the printed parent chain.

B1: GH2-4 scFv (scFv, V domains shown)
VH: EVQLVESGGGLVQPGGSLRLSCAASGFTINSGSIHWVRQAPGKGLEWVAFIGPFGGYTSYADSVKGRFTISADTSKNTAYLQMNSLRAEDTAVYYCARFGWNDYDFMDYWGQGTLVTVSS
VL: DIQMTQSPSSLSASVGDRVTITCRASQDVFGGVAWYQQKPGKAPKLLIYSASFLYSGVPSRFSGSGSGTDFTLTISSLQPEDFATYYCQQYFDWPITFGQGTKVEIK
notes: source: E. coli ER2738, secreted, in filtered culture supernatant
B2: GH2-55 scFv (scFv, V domains shown)
VH: EVQLVESGGGLVQPGGSLRLSCAASGFTIDGFSIHWVRQAPGKGLEWVAGIGPYGGYTSYADSVKGRFTISADTSKNTAYLQMNSLRAEDTAVYYCARFDIWHNFGMDYWGQGTLVTVSS
VL: B1 VL with F30D, G32N, Y49S, S52G, F53S, Y91S, F92W, D93S, I96L
notes: as for B1
B3: GH2-12 scFv (scFv, V domains shown)
VH: EVQLVESGGGLVQPGGSLRLSCAASGFTINDWGIHWVRQAPGKGLEWVAGIWPYWGYTSYADSVKGRFTISADTSKNTAYLQMNSLRAEDTAVYYCARYHVYFWWMDYWGQGTLVTVSS
VL: B1 VL with F30S, G31N, G32N, S50G, A51P, F92Y, D93N, W94Y
notes: as for B1
B4: GH2-8 scFv (scFv, V domains shown)
VH: GVQLVESGGGLVQPGGSLRLSCAASGFTIGSSGIHWVRQAPGKGLEWVAGIWPYWGSTYYADSVKGRFTISADTSKNTAYLQMNSLRAEDTAVYYCARFGVGYHYYMDYWGQGTLVTVSS
VL: B1 VL with F30G, G31W, G32W, Y49S, S50G, S52T, F53G, Y91S, F92W, W94S
notes: as for B1
B5: GH2-42 scFv (scFv, V domains shown)
VH: EVQLVESGGGLVQPGGSLRLSCAASGFTISNWGIHWVRQAPGKGLEWVAGIGPYGGYTSYADSVKGRFTISADTSKNTAYLQMNSLRAEDTAVYYCARFGFYFDGIMDYWGQGTLVTVSS
VL: DIQMTQSPSSLSASVGDRVTITCRASQDVSSGVAWYQQKPGKAPKLLISGPTGLYSGVPSRFSGSGSGTDFTLTISSLQPEDFATYYCQQYYDWPLTFGQGTKVKRG
notes: also called scFv(GH2-42); source: E. coli ER2738, secreted, in filtered culture supernatant
B6: GH2-26 scFv (scFv, V domains shown)
VH: B5 VH with N31D, W32Y, G50F, G55W, S59Y, G100Y, Y102F, F103G, I106L
VL: B1 VL with F30S, G31S, S50G, A51T, F53S, D93N
notes: as for B1
B7: GH2-107 scFv (scFv, V domains shown)
VH: B2 VH with D30S, G31N, S33G, G50Y, T91A, D100H, W102H, H103N, N104L, F105W
VL: B1 VL with F30S, G31D, Y49S, S50G, S52G, F53Y, Y91F, F92Y, D93S
notes: as for B1
B8: GH2-92 scFv (scFv, V domains shown)
VH: B5 VH with S30G, G50S, Y54F, G55W, S59F, F101N, Y102H, F103Y
VL: DIQMTQSPSSLSASVGDRVTITCRASQDVNDGVAWYQQKPGKAPKLLIFGSPYLFSGVPSRFSGSGSGTDFTLTISSLQPEDFATYYCQQYFSWPITFGQGTQVGIK
notes: as for B1
B9: GH2-40 scFv (scFv, V domains shown)
VH: B5 VH with S30N, N31S, G50W, G55W, Y57F, G100D, F101G, Y102H, I106V
VL: B1 VL with F30N, G31N, Y49S, S50G, A51T, S52P, F53W, I96L
notes: as for B1
B10: GH2-11 scFv (scFv, V domains shown)
VH: B2 VH with D30N, G31D, F32W, S33G, K65R, D100V, I101N, H103D, N104F, F105Y
VL: B1 VL with F30G, G31D, S52G, F53W, F92Y, D93S, W94Y
notes: as for B1
B11: GH2-103 scFv (scFv, V domains shown)
VH: B5 VH with S30D, N31E, W32Y, G50F, G55W, F101H, Y102L, F103H, I106L
VL: B1 VL with G31S, Y49S, S50G, A51T, S52P, F92Y, D93N
notes: as for B1
B12: GH2-72 scFv (scFv, V domains shown)
VH: EVQLVESGGGLVQPGGSLRLSCAASGFTISNGGIHWVRQAPGKGLEWVAYIWPSGGYTFYADSVKGRFTISADTSKNTAYLQMNSLRAEDTAVYYCARFFNNDWIGMDYWGQGTLVTVSS
VL: B5 VL with S30G, S31Y, G32F, P51T, G53W, Y92S, D93N, K105E, R106I, G107K
notes: as for B1
B13: GH2-75 scFv (scFv, V domains shown)
VH: B2 VH with F27S, D30G, G31N, F32S, S33G, G50Y, I101D, W102Y, N104W, F105D
VL: DIQMTQSPSSLSASVGDRVIITCRASQDVSGYVAWYQQKPGKAPKLLIYSSGVPSRFSGSGSGTDFTLTISSLQPEDFATYYCQQYYNWPVTFGQGTKVEIK
notes: also called scFv(GH2-75); source: E. coli ER2738, secreted, in filtered culture supernatant
B14: GH2-38 scFv (scFv, V domains shown)
VH: B5 VH with N31D, W32G, F101D, Y102N, D104I, I106V
VL: B1 VL with S50G, A51P, F53Y, F92S, D93S
notes: as for B1
B15: GH2-62 scFv (scFv, V domains shown)
VH: B5 VH with S30N, G52W, Y54F, S59Y, G100D, F101Y, Y102L, F103N, D104N, I106G
VL: B1 VL with F30G, G32Y, Y49F, S50G, F53G, Y91F, F92Y, D93S, W94S, I96L
notes: as for B1
B16: GH2-61 scFv (scFv, V domains shown)
VH: B5 VH with S30N, G52W, S59Y, G100Y, F101N, Y102H, F103H, D104G, I106V
VL: B1 VL with F30G, G31S, G32N, Y49S, S50W, A51S, S52T, F53S, F92G, D93G
notes: also called scFv(GH2-61); source: E. coli ER2738, secreted, in filtered culture supernatant
B17: GH2-31 scFv (scFv, V domains shown)
VH: B5 VH with S30N, W32F, G50S, Y54F, G55W, F101N, Y102D, F103Y, I106V
VL: B1 VL with F30S, G31W, A51P, S52P, F53W, F92Y, D93N
notes: as for B1
B18: GH2-102 scFv (scFv, V domains shown)
VH: B5 VH with S30N, N31G, W32G, G50S, E89G, F101H, Y102H, F103Y, I106H
VL: B1 VL with F30G, G31S, G32N, S50G, S52P, F53Y, F92Y, D93N, I96L
notes: as for B1
B19: GH2-101 scFv (scFv, V domains shown)
VH: B5 VH with S30N, N31S, W32Y, G50S, G55W, G100Y, F101I, Y102W, I106L
VL: B5 VL with T5A, S31N, S49Y, P51T, G53S, D93S, K105E, R106I, G107K
notes: as for B1
B20: GH2-24 scFv (scFv, V domains shown)
VH: B1 VH with N30D, S31N, F54S, S59F, N102H, D103N, Y104V, F106N
VL: B1 VL with F30G, G31W, Y49S, A51T, S52R, F53S, F92Y, D93N, I96L
notes: as for B1

biological target: T1, HER2-ECD (human epidermal growth factor receptor 2, extracellular domain) (Homo sapiens, UniProt P04626); test: ELISA; details: one partner purified
T1 construct: also called HER-ECD

| Binder | binding result |
| --- | --- |
| B1 | binds |
| B2 | binds |
| B3 | binds |
| B4 | binds |
| B5 | binds |
| B6 | binds |
| B7 | binds |
| B8 | binds |
| B9 | binds |
| B10 | binds |
| B11 | binds |
| B12 | binds |
| B13 | binds |
| B14 | binds |
| B15 | binds |
| B16 | binds |
| B17 | binds |
| B18 | binds |
| B19 | binds |
| B20 | binds |
